Article PMC4086636

Target: domain 4 of the anthrax protective antigen (Bacillus anthracis) (UniProt P13423)
Test: cross-linking

**Q.** With M18 scFv with L-DOPA at position H_S31 as the substance, how does the Experimental Crosslinking (%) read?
**A.** 51.9%

**Q.** Which Experimental Crosslinking (%) does the source give for M18 scFv with L-DOPA at position H_D56 here?
**A.** 36.2%

**Q.** M18 scFv with L-DOPA at position H_G55 was tested. Which Experimental Crosslinking (%) did it give?
**A.** 5.1%

**Q.** With M18 scFv with L-DOPA at position H_Y52 as the substance, how does the Experimental Crosslinking (%) read?
**A.** 19.7%

**Q.** Which Experimental Crosslinking (%) does the source give for M18 scFv with L-DOPA at position H_G53 here?
**A.** 40.3%

**Q.** With M18 scFv with L-DOPA at position H_N58 as the substance, how does the Experimental Crosslinking (%) read?
**A.** 24.4%

**Q.** With M18 scFv with L-DOPA at position H_W33 as the substance, how does the Experimental Crosslinking (%) read?
**A.** 13.9%

**Q.** How did the Experimental Crosslinking (%) turn out when M18 scFv with L-DOPA at position H_D54 was run?
**A.** 30.4%
